Here are results for one substance from patent publication US20230122364A1.

The assay deals with prefusion conformation-stabilized SARS-CoV-2 spike ectodomain (S2Pecto) protein (SARS-CoV-2) (UniProt P0DTC2). The experiment in a line: ELISA on coated S2Pecto. On the technique in general: ELISA stands for enzyme-linked immunosorbent assay.

For “rCR3022 (recombinant form of the cross-reactive SARS-CoV SRBD mAb CR3022) (antibody)”, the EC50 (in general, the concentration at which the effect is half-maximal) was found to be 0.0102 µg/mL.
